{"source": "paper PMC9304225", "key": {"[1]": {"biological_target": "RING_(MUL1):UBE2D2 complex (UniProt Q969V5)", "assay": "ITC"}, "[2]": {"biological_target": "UBE2D2 (UniProt P62837)", "assay": "ITC"}, "[3]": {"biological_target": "p53 transactivation domain (residues 1–73) (human) (UniProt P04637)", "sequence (P04637 1-73)": "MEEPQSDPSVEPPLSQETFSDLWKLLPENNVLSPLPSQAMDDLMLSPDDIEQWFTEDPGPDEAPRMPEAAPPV", "assay": "NMR titration"}}, "note": "Where “and” joins values, the source holds several entries; their conditions need not be identical. Equal values may be shown once."}
{"substance": "AD39 peptide (p53 residues 39–57)", "values": [{"measurement": "Kd", "setting": "[1]", "value": "184 µM and 175 µM and 193 µM"}, {"measurement": "dH", "setting": "[1]", "value": "-1.13 kcal/mol and -1.15 kcal/mol and -1.12 kcal/mol"}, {"measurement": "stoichiometry N", "setting": "[1]", "value": "0.88 and 0.89 and 0.87"}]}
{"substance": "RING domain of MUL1 (residues 298–352) (from UniProt Q969V5 298-352) (domain or fragment)", "values": [{"measurement": "Kd", "setting": "[2]", "value": "43 µM and 28 µM and 13 µM"}, {"measurement": "dH", "setting": "[2]", "value": 1.5, "unit": "kcal/mol"}]}
{"substance": "RING_(MUL1):UBE2D2 complex (from UniProt Q969V5 298-352; P62837 1-147)", "values": [{"measurement": "Kd", "setting": "[3]", "value": 171, "unit": "µM"}]}
{"substance": "UBE2D2 (from UniProt P62837 1-147) (enzyme)", "values": [{"measurement": "Kd", "setting": "[3]", "value": 735, "unit": "µM"}]}
{"substance": "p53 transactivation domain (residues 1–73) (from UniProt P04637 1-73) (domain or fragment)", "values": [{"measurement": "Kd", "setting": "[1]", "value": 111, "unit": "µM"}, {"measurement": "dH", "setting": "[1]", "value": -0.673, "unit": "kcal/mol"}, {"measurement": "stoichiometry N", "setting": "[1]", "value": 1.01}]}
